Experimental data: US20240228658A1 (IMMUNORIZON, published 2024)
Numbering of substitutions follows the chain as printed. Read-outs that look alike come from different tables or passages of the source. Blank lines part the entries; values can stand above or below the binder they belong to.

How the values were obtained:
[1] = target: T1, recombinant human 5T4 ECD protein fused to human Fc (human, UniProt Q13641 32-355); assay: Octet, mAb on AMC sensor, 5T4-ECD Fc as analyte
T1 construct: extracellular domain; Immunogen, ELISA antigen and Octet analyte; also called 5T4-ECD-hFc; 5T4-ECD-Fc; not shown: human Fc
T1 sequence (looked up): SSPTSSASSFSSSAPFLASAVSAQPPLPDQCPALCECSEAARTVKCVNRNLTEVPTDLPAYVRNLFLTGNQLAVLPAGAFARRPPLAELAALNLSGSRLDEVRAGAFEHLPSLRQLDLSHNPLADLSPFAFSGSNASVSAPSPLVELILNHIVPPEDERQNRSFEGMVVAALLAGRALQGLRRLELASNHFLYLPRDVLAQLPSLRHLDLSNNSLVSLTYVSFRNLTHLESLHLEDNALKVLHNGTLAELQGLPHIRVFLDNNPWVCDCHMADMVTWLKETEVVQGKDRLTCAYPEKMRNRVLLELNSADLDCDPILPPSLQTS
Experimental: (§1) Binding Affinities by Octet Test. Briefly, mAb were analyzed by Octet RED 384 instrument, where human 5T4-ECD Fc antigen at 200 nM and 100 nM served as the analyte and the purified mAbs at 5 μg/ml served as the ligand, bound to AMC sensor (anti mouse Fc antibody) with immobilized phase of 180 s, association phase of 300 s, dissociation phase of 180 s.
(§2) FIGS. 7A-7G present the Octet data determined the KD affinities of selected mAb.

[2] = target: T1, recombinant human 5T4 ECD protein fused …; assay: ELISA, coated 5T4 antigen
[3] = target: T2, human 5T4 on cells (human, UniProt Q13641 32-420); assay: FACS, CHO cells over expressing human 5T4
T2 construct: whole, on cells; also called CHO cells over expressing human 5T4; MCF-7 (endogenous 5T4)
T2 sequence (looked up): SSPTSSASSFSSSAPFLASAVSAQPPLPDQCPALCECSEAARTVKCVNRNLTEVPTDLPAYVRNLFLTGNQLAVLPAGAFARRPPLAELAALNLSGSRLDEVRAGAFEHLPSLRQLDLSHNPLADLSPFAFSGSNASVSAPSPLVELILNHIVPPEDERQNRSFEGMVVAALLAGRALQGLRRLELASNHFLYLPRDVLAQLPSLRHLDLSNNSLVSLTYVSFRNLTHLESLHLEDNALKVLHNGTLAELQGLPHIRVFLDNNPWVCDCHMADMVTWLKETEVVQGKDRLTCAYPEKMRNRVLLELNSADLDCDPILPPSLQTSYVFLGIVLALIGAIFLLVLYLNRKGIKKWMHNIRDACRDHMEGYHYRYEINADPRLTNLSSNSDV

[4] = target: T3, cyno 5T4 on CHO cells (cyno, UniProt Q4R8Y9 35-420); assay: FACS, CHO cells over expressing cyno 5T4
T3 construct: whole, on cells; also called CHO over expressing cyno 5T4
T3 sequence (looked up): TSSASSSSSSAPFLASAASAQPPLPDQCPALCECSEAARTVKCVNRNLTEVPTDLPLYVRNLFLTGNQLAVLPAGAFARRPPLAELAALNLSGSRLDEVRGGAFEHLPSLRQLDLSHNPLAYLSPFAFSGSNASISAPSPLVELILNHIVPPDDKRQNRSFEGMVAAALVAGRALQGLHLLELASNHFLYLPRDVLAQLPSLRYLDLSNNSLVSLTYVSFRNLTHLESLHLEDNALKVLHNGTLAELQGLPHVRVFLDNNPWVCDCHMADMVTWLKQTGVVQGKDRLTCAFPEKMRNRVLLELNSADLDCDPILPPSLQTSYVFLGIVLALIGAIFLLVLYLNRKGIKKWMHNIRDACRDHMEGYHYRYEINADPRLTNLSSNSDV

[5] = target: T1, recombinant human 5T4 ECD protein fused …; assay: Octet, mAb on AMC sensor, 5T4-Fc as analyte
Experimental: as §1, §2

[6] = target: T2, human 5T4 on cells; assay: FACS on CHO over expressing human 5T4; FACS, CHO over expressing human 5T4
[7] = target: T3, cyno 5T4 on CHO cells; assay: FACS on CHO over expressing cyno 5T4 (data not shown); FACS, CHO over expressing cyno 5T4
[8] = target: T4, h5T4-His (cat #19845-H08H, Sino Biological) (human, UniProt Q13641 32-355); assay: ELISA on recombinant 5T4 protein; ELISA on recombinant 5T4 protein
T4 construct: also called recombinant 5T4 protein; 5T4 recombinant antigen protein; not shown: His tag
T4 sequence (looked up): T1 sequence (looked up)

[9] = target: T2, human 5T4 on cells; assay: FACS on MCF-7 cells endogenously expressing 5T4; FACS, MCF-7 endogenously expressing 5T4
[10] = target: T1, recombinant human 5T4 ECD protein fused …; assay: ELISA, coated 5T4 antigen; remark: listed apart in the source
[11] = target: T3, cyno 5T4 on CHO cells; assay: FACS, CHO cells over expressing cyno 5T4; remark: listed apart in the source
[12] = target: T2, human 5T4 on cells; assay: FACS, CHO cells over expressing human 5T4; remark: listed apart in the source
[13] = target: T1, recombinant human 5T4 ECD protein fused …; assay: ELISA, coated 5T4 antigen; remark: listed apart in the source
[14] = target: T3, cyno 5T4 on CHO cells; assay: FACS, CHO cells over expressing cyno 5T4; remark: listed apart in the source
[15] = target: T1, recombinant human 5T4 ECD protein fused …; assay: ELISA, coated 5T4 antigen; remark: listed apart in the source
[16] = target: T1, recombinant human 5T4 ECD protein fused …; assay: Octet (data not shown; antigen format not stated here)

B1: mAb008 (antibody, V domains shown)
VH: QVQLQQSGAELMKPGASVKLACKATGYTFTAYWIEWVKQRPGHGLEWIGEILPGRGSTNSNEKFKGKATFTADTSSNTVYMQLSSLTTEDSAIFYCARGYRDFDYWGQGTTLTVSS
VL: DIVMTQSQKFMSTTVGDRVSIICKASQNVGTAVAWYQQKPGQSPKVLIYSASNRYTGVPDRFTGSGSGTDFTLTISNMQSEDLADYFCQQYTSYPRTFGGGTKLEIK
notes: also called IM, 5T4 mouse hybridoma cl-8
Kd [1]: 0.209 nM
EC50 (read off the curve) [2]: ~0.3 nM
EC50 (read off the curve) [3]: ~5 nM
EC50 (read off the curve) [4]: ~5 nM
koff [5]: 3.87e-05 s⁻¹
kon [5]: 185000 M⁻¹ s⁻¹

B2: mAb008-hIgG1 chimeric Ab (antibody, V domains shown)
VH: B1 VH
VL: B1 VL
notes: Mouse VH and VL of mAb008 cloned into human IgG1
EC50 [6]: 5 nM
EC50 [7]: 5.7 nM
EC50 [8]: 0.4 nM
EC50 [9]: 4.4 nM

B5: mAb003 (antibody, V domains shown)
VH: B1 VH with A21S, A31G, G56D
VL: B1 VL with T92S
notes: also called IM, 5T4 mouse hybridoma cl-3
EC50 (read off the curve) [12]: ~4 nM
EC50 (read off the curve) [13]: ~0.4 nM
EC50 (read off the curve) [14]: ~5 nM

B9: mAb006 (antibody, V domains shown)
VH: EVQLVESGGGLVKPGGSLKLSCAASGFTFSNYVMSWVRQTPEKRLEWVATISDRGSYTYYPDYVKGRFTISRDNAKNNLYLQMSHLKSEDTAMYYCARASYYSNLGFAYWGQGTLVTVSA
VL: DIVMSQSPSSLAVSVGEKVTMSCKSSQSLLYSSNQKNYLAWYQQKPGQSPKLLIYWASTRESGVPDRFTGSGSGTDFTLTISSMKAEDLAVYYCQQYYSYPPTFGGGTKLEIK
notes: also called IM, 5T4 mouse hybridoma cl-6
Kd [1]: 5.67 nM
koff [5]: 0.00125 s⁻¹
kon [5]: 220000 M⁻¹ s⁻¹
binding result [14]: binds

B10: mAb005 (antibody, V domains shown)
VH: EVQLVESGGGLVQPKGSLQLSCAASGFTFNTYAMHWVRQAPGKGLEWVARIRSKSSNYATYYADSVKDRFTISRDDSQSMLYLQMNNLKTEDTAMYYCVRDGDYYYGSRPSYWYFDVWGTGTTVTVSS
VL: DILLTQSPAILSVSPGERVSFSCRASQSIGTNIHWYQQRTNGSPRLLIKYASESISGIPSRFSGSGSGTDFTLSINNVESEDIADYYCQQTNTWPLTFGAGTKLDLK
notes: also called IM, 5T4 mouse hybridoma cl-5
Kd [1]: 2.69 nM
koff [5]: 0.00024 s⁻¹
kon [5]: 89300 M⁻¹ s⁻¹

The remaining lines, values ahead:

Kd [1]: 0.463 nM
EC50 (read off the curve) [2]: ~0.3 nM
EC50 (read off the curve) [3]: ~3 nM
EC50 (read off the curve) [4]: ~4 nM
koff [5]: 9.53e-05 s⁻¹
kon [5]: 206000 M⁻¹ s⁻¹
B3: mAb010 (antibody, V domains shown)
VH: B1 VH with Q5R, A21S, A31G, T58S, S60Y, F70L, T88I, F94Y, Y100G
VL: DIQMTQITSSLSASLGDRVTIGCSASQGINNNLNWYQQKPDGTVKLLVYYTSSLHSGVPSRFSGSGSGTDYSLTISNLEPEDIATYYCQQFIKLPYTFGGGTKLEIK
notes: also called mAb10; IM, 5T4 mouse hybridoma cl-10

EC50 (read off the curve) [10]: ~0.2 nM
binding result [11]: binds
B4: mAb014 (antibody, V domains shown)
VH: B1 VH with A9G, A21S, T28K, A31G, S60Y, F94Y, Y100G, Y105F, T110S
VL: B3 VL with I7T, G22S, N31S, V48I, F91Y, I92N
notes: also called IM, 5T4 mouse hybridoma cl-14

Kd [1]: 0.232 nM
EC50 (read off the curve) [15]: ~0.2 nM
koff [5]: 3.48e-05 s⁻¹
kon [5]: 150000 M⁻¹ s⁻¹
B6: mAb016 (antibody, V domains shown)
VH: AVQLQQSGPVRVKPGASVKMSCKASGYPFTDYYMNWVKQSHGRSLDWIGVFNPYNGDTRYTQKFKDKATLTIDKSSSTAYMELNSLTSEDSAVYYCARLRLLYDTSEYYVMDYWGQGTSVTVSS
VL: ENVLTQSPAIMSASPGEKVTMTCSASSSVNYMHWYQQKSNTSPKLWIYDTSKLASGVPGRFSGSGSGNSYSLTISSMEAEDVATYFCFQGSGYPYTFGGGTKLEIK
notes: also called mAb0016; IM, 5T4 mouse hybridoma cl-16

Kd [1]: 0.269 nM
EC50 (read off the curve) [15]: ~0.3 nM
koff [5]: 6.97e-05 s⁻¹
kon [5]: 259000 M⁻¹ s⁻¹
binding result [11]: binds
B7: mAb018 (antibody, V domains shown)
VH: EVQLRQSGPVLVKPGASLKMSCKASGFTIADYYMTWVTQSHGQSLDWIGLINPYSGETTYNQKFKGKATLSVDKSSNTAYMDLNSLTSEDSAVYYCARWRLGYYAMDYWGRGTSVTVSS
VL: B6 VL with N30S, N40S, L45V, F86Y, S91I
notes: also called IM, 5T4 mouse hybridoma cl-18

EC50 [6]: 1.1 nM
Kd [16]: 14.7 nM
EC50 [7]: 2.2 nM
EC50 [8]: 0.3 nM
EC50 [9]: 0.9 nM
B8: mAb016-hIgG1 chimeric Ab (antibody, V domains shown)
VH: B6 VH
VL: B6 VL
notes: Mouse VH and VL of mAb016 cloned into human IgG1; also called mAb0016-IgG1
